Two molecules from article PMC9935832, “Calcium-dependent protein kinase CDPK16 phosphorylates serine-856 of glutamate receptor-like GLR3.6 protein leading to salt-responsive root growth in Arabidopsis^#” (Frontiers in Plant Science, 2023) can be followed below.

The assay has as its target T1, 6xHis-14-3-3ω (Arabidopsis, UniProt Q01525 1-259).
T1 construct: End of the His tag read from the printed name 6xHis-14-3-3ω; Vector map in Appendix 1B; construct as in Chen et al. (2018); also called recombinant 6xHis-14-3-3ω; source: E. coli BL21, purified (Ni-NTA agarose); not shown: 6xHis, N-terminal, kept
T1 sequence (looked up): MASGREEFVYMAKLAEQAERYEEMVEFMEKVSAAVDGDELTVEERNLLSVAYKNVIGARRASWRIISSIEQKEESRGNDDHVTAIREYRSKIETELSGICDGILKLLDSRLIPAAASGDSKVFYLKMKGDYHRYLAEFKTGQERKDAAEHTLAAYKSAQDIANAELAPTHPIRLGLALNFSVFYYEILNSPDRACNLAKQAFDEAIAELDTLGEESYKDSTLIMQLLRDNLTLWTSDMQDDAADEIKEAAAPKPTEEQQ
Briefly: pull-down; 6xHis-14-3-3ω and GST-fused GLR3.6 peptides (50 μg each) mixed with Ni-NTA agarose, 4°C, 2 h; western blot with α-His and α-GST. To be noted: both partners purified. A general note: Immunoblotting shows a protein as a band on a membrane.

B1: GST-GLR3.6 (GST-fused peptide fragment of GLR3.6, amino acids 854-865) (peptide)
chain: EGSIRRRSSPSA
notes: cloned by AscI and NotI into the GST-NRV vector; End of GST read from the printed name GST-GLR3.6; The vector-only control gives GST-RFP-Strep tag II, so the peptide fusion probably carries RFP and Strep tag II too; vector map in Appendix 1A; design as in Curran et al. (2011); also called GLR3.6 peptide fragment; source: E. coli BL21, purified (glutathione resin); not shown: GST, N-terminal, kept
For B1, the binding result is reported as “binds”.

B2: GST-GLR3.6-S856A (GST-fused peptide fragment) (peptide, UniProt Q84W41 854-865, looked up)
chain: EGAIRRRSSPSA
notes: End of GST read from the printed name; also called GLR3.6-S856A single mutant; source: E. coli BL21, purified (glutathione resin); not shown: GST, N-terminal, kept
Take B2: the binding result is on record as “binds”.
